Data from US10081661.

What was measured:
Assay in all cases: cell_activity
[1] = tested on: ZFN SBS#47169 (human albumin); details: paired with 47171; HepG2, 100 ng mRNA each
[2] = tested on: ZFN SBS#47898 (human albumin); details: paired with 47863; K562
[3] = tested on: ZFN SBS#47079 (human albumin); details: paired with 47863; K562
[4] = tested on: ZFN SBS#40477 (human albumin); details: paired with 47192; HepG2
[5] = tested on: ZFN SBS#47931 (human albumin); details: paired with 47863; K562
[6] = tested on: ZFN SBS#47864 (human albumin); details: paired with 47931; HepG2
[7] = tested on: ZFN SBS#47863 (human albumin); details: paired with 47898; K562
[8] = tested on: ZFN SBS#47171 (human albumin); details: paired with 47079; K562, 75 ng mRNA
[9] = tested on: ZFN SBS#47192 (human albumin); details: paired with 47079; K562

| Sequence | activity [1] [% indels] | activity [2] [% indels] | activity [3] [% indels] | activity [4] [% indels] | activity [5] [% indels] | activity [6] [% indels] | activity [7] [% indels] | activity [8] [% indels] | activity [9] [% indels] |
| --- | --- | --- | --- | --- | --- | --- | --- | --- | --- |
| CCTATCCATTGCACTATGCTTTATTTAA (double strand) [human/rhesus albumin site] | 22.2 | 91.9 | 86.8 | 23.7 | 78.9 |  |  |  |  |
| TTTGGGATAGTTATGAATTCAATCTTCA (double strand) [human albumin site] |  |  |  |  |  | 21.3 | 91.9 | 79.4 | 77.9 |
